Results taken from publication doi:10.1101/2022.12.14.520423.

Molecular target: T1, CLAMP (CLAMPmel) (Drosophila melanogaster, UniProt Q9V9N4 1-561)
T1 sequence: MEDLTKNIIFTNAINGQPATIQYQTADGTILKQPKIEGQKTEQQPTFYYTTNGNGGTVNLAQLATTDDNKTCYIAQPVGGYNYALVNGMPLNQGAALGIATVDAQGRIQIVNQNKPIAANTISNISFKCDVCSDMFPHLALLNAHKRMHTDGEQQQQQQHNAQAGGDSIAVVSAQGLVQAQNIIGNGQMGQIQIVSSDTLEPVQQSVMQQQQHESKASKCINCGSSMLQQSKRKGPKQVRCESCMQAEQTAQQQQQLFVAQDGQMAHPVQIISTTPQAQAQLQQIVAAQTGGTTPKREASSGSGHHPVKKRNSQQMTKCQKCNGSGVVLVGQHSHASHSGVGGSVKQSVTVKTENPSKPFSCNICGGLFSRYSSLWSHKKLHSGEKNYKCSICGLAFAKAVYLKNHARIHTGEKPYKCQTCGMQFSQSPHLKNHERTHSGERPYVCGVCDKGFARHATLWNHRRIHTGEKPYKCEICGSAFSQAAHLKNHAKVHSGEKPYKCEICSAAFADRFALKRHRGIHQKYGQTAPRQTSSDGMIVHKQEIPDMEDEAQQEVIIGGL
Assay: EMSA

B1: Dvir 2 (dsDNA)
DNA 1: TACCAAAAACTCAAAAAGACGAGCGAGTGAAAACATATTTCCATCTCGCTCACATACTAC
DNA 2: GTAGTATGTGAGCGAGATGGAAATATGTTTTCACTCGCTCGTCTTTTTGAGTTTTTGGTA
B1: binds.
